Measurements from US20070048219A1.

Target: IL-8 receptors on human neutrophils
Experiment: unlabeled IL-8 displaces 125I-IL-8 from IL-8 receptors on human neutrophils; value in the legend box without a column head, IC50

IC50: 0.078 nM
Substance: recombinant human IL-8, (ser-IL-8)72 (from UniProt P10145 28-99) (ligand)
